First the molecules themselves.
B1: Azoarcus group I ribozyme (parent)
chain: GUGCCUUGCGCCGGGAAACCACGCAAGGGAUGGUGUCAAAUUCGGCGAAACCUAAGCGCCCGCCCGGGCGUAUGGCAACGCCGAGCCAAGCUUCGGCGCCUGCGCCGAUGAAGGUGUAGAGACUAGACGGCACCCACCUAAGGCAAACGCUAUGGUGAAGGCAUAGUCCAGGGAGUGGCGAAAGUCACACAAACCGG

The variants in this series derive from B1. As to the kind of experiment: reverse-splicing fitness (ratio to wild type); higher = more active; in vitro selection; Mg2+ level not given. The method, boiled down:
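An in vitro group I ribozyme library with randomized positions was T7-transcribed and gel-purified. In triplicate, 10 pmol RNA in EPPS pH 7.5 was reacted with 50 pmoles of a 30-nt RNA substrate for 1 h at 37 °C across several added MgCl2 levels (1–48 mM), then stopped with EDTA. Products were reverse transcribed from a substrate-complementary primer, PCR-amplified and sequenced (HiSeq 4000). Fitness is a variant's read proportion after selection over that before, normalised to wild type.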
With GUGCCUUGCGCCGGGAAACCACGCAAGGGAUGGUGUCAAAUUCGGCGAAACCUAAGCGCCCGCCCGGGCGUAUGGCAACGCCGAGCCAAGCUUCGGCGCCUGCGCCGAUGAAGGUGUAGAGACUAGACGGCACCCACCUAAGGCGAACGUUAUGGUGAAGGCAUAGUCCAGGGAGCGGCGAAAGUCACACAAACCGG [A145G C150U U176C], the reverse-splicing fitness was found to be 0.821. In the case of GUGCCUUGCGCCGGGAAACCACGCAAGGGAUGGUGUCAAAUUCGGCGAAACCUAAGCGCCCGCCCGGGCGUAUGGCAACGCCGAGCCAAGCUUCGGCGCCUGCGCCGAUGGAGGUGUAGCGACUAGACGGCACCCACCUAAGGCUAACGAUAUGGUGAAGGCAUAGUCAAGGGAGUGGCGAAAGUCACACAAACCGG [A111G A120C A145U C150A C169A], the reverse-splicing fitness worked out at 0.00758. As to GUGCCUUGCGCCGGGAAACCACGCAAGGGAUGGUGUCAAAUUCGGCGAAACCUAAGCGCCCGCCCGGGCGUAUGGCAACGCUGAGCCAAGCUUCGGCGCCUGCGCCGAUGGAGGUGUAGUGACUAGACGGCACCCACCUAAGGCCAACGUUAUGGUGAAGGCAUAGUCUAGGGAGGGGCGAAAGUCACACAAACCGG [C82U A111G A120U A145C C150U C169U U176G], the reverse-splicing fitness was 0.00188. The result for GUGCCUUGCGCCGGGAAACCACGCAAGGGAUGGUGUCAAAUUCGGCGAAACCUAAGCGCCCGCCCGGGCGUAUGGCAACGCUGAGCCAAGCUUCGGCGCCUGCGCCGAUGUAGGUGUAGGGACUAGACGGCACCCACCUAAGGCGAACGAUAUGGUGAAGGCAUAGUCGAGGGAGAGGCGAAAGUCACACAAACCGG [C82U A111U A120G A145G C150A C169G U176A] reads 0.0152; that for GUGCCUUGCGCCGGGAAACCACGCAAGGGAUGGUGUCAAAUUCGGCGAAACCUAAGCGCCCGCCCGGGCGUAUGGCAACGCUGAGCCAAGCUUCGGCGCCUGCGCCGAUGAAGGUGUAGGGACUAGACGGCACCCACCUAAGGCCAACGUUAUGGUGAAGGCAUAGUCCAGGGAGCGGCGAAAGUCACACAAACCGG [C82U A120G A145C C150U U176C], 0.00744; that for GUGCCUUGCGCCGGGAAACCACGCAAGGGAUGGUGUCAAAUUCGGCGAAACCUAAGCGCCCGCCCGGGCGUAUGGCAACGCGGAGCCAAGCUUCGGCGCCUGCGCCGAUGUAGGUGUAGGGACUAGACGGCACCCACCUAAGGCGAACGCUAUGGUGAAGGCAUAGUCGAGGGAGCGGCGAAAGUCACACAAACCGG [C82G A111U A120G A145G C169G U176C], 0.0235. The result for GUGCCUUGCGCCGGGAAACCACGCAAGGGAUGGUGUCAAAUUCGGCGAAACCUAAGCGCCCGCCCGGGCGUAUGGCAACGCCGAGCCAAGCUUCGGCGCCUGCGCCGAUGGAGGUGUAGAGACUAGACGGCACCCACCUAAGGCGAACGUUAUGGUGAAGGCAUAGUCGAGGGAGGGGCGAAAGUCACACAAACCGG [A111G A145G C150U C169G U176G] reads 0.00595; that for GUGCCUUGCGCCGGGAAACCACGCAAGGGAUGGUGUCAAAUUCGGCGAAACCUAAGCGCCCGCCCGGGCGUAUGGCAACGCAGAGCCAAGCUUCGGCGCCUGCGCCGAUGCAGGUGUAGCGACUAGACGGCACCCACCUAAGGCCAACGAUAUGGUGAAGGCAUAGUCAAGGGAGUGGCGAAAGUCACACAAACCGG [C82A A111C A120C A145C C150A C169A], 0.00755.

For the variant GUGCCUUGCGCCGGGAAACCACGCAAGGGAUGGUGUCAAAUUCGGCGAAACCUAAGCGCCCGCCCGGGCGUAUGGCAACGCUGAGCCAAGCUUCGGCGCCUGCGCCGAUGCAGGUGUAGGGACUAGACGGCACCCACCUAAGGCCAACGUUAUGGUGAAGGCAUAGUCAAGGGAGUGGCGAAAGUCACACAAACCGG [C82U A111C A120G A145C C150U C169A], the reverse-splicing fitness amounted to 0.00786. With GUGCCUUGCGCCGGGAAACCACGCAAGGGAUGGUGUCAAAUUCGGCGAAACCUAAGCGCCCGCCCGGGCGUAUGGCAACGCUGAGCCAAGCUUCGGCGCCUGCGCCGAUGCAGGUGUAGAGACUAGACGGCACCCACCUAAGGCAAACGUUAUGGUGAAGGCAUAGUCCAGGGAGAGGCGAAAGUCACACAAACCGG [C82U A111C C150U U176A], the reverse-splicing fitness was 0.0385. For the variant GUGCCUUGCGCCGGGAAACCACGCAAGGGAUGGUGUCAAAUUCGGCGAAACCUAAGCGCCCGCCCGGGCGUAUGGCAACGCGGAGCCAAGCUUCGGCGCCUGCGCCGAUGCAGGUGUAGAGACUAGACGGCACCCACCUAAGGCCAACGGUAUGGUGAAGGCAUAGUCUAGGGAGAGGCGAAAGUCACACAAACCGG [C82G A111C A145C C150G C169U U176A], the reverse-splicing fitness was 0.00717. For the variant GUGCCUUGCGCCGGGAAACCACGCAAGGGAUGGUGUCAAAUUCGGCGAAACCUAAGCGCCCGCCCGGGCGUAUGGCAACGCUGAGCCAAGCUUCGGCGCCUGCGCCGAUGGAGGUGUAGGGACUAGACGGCACCCACCUAAGGCCAACGAUAUGGUGAAGGCAUAGUCUAGGGAGAGGCGAAAGUCACACAAACCGG [C82U A111G A120G A145C C150A C169U U176A], the reverse-splicing fitness amounted to 0.0192. The value for GUGCCUUGCGCCGGGAAACCACGCAAGGGAUGGUGUCAAAUUCGGCGAAACCUAAGCGCCCGCCCGGGCGUAUGGCAACGCAGAGCCAAGCUUCGGCGCCUGCGCCGAUGGAGGUGUAGCGACUAGACGGCACCCACCUAAGGCUAACGGUAUGGUGAAGGCAUAGUCCAGGGAGGGGCGAAAGUCACACAAACCGG [C82A A111G A120C A145U C150G U176G] was 0.00395; that for GUGCCUUGCGCCGGGAAACCACGCAAGGGAUGGUGUCAAAUUCGGCGAAACCUAAGCGCCCGCCCGGGCGUAUGGCAACGCGGAGCCAAGCUUCGGCGCCUGCGCCGAUGCAGGUGUAGCGACUAGACGGCACCCACCUAAGGCCAACGCUAUGGUGAAGGCAUAGUCAAGGGAGCGGCGAAAGUCACACAAACCGG [C82G A111C A120C A145C C169A U176C] was 0.0118.

For GUGCCUUGCGCCGGGAAACCACGCAAGGGAUGGUGUCAAAUUCGGCGAAACCUAAGCGCCCGCCCGGGCGUAUGGCAACGCCGAGCCAAGCUUCGGCGCCUGCGCCGAUGGAGGUGUAGCGACUAGACGGCACCCACCUAAGGCUAACGCUAUGGUGAAGGCAUAGUCGAGGGAGUGGCGAAAGUCACACAAACCGG [A111G A120C A145U C169G], the reverse-splicing fitness amounted to 0.0128.

For the origin of these results see the RNAGym collection of RNA variant scans (doi:10.1093/molbev/msab373).
